Experimental data reported in publication PMC11618752 (2024).

Biological target: XPO1 protein, recombinant (UniProt O14980 1-1071)
Test: ITC

Chain of XPO1 protein, recombinant (O14980 whole entry): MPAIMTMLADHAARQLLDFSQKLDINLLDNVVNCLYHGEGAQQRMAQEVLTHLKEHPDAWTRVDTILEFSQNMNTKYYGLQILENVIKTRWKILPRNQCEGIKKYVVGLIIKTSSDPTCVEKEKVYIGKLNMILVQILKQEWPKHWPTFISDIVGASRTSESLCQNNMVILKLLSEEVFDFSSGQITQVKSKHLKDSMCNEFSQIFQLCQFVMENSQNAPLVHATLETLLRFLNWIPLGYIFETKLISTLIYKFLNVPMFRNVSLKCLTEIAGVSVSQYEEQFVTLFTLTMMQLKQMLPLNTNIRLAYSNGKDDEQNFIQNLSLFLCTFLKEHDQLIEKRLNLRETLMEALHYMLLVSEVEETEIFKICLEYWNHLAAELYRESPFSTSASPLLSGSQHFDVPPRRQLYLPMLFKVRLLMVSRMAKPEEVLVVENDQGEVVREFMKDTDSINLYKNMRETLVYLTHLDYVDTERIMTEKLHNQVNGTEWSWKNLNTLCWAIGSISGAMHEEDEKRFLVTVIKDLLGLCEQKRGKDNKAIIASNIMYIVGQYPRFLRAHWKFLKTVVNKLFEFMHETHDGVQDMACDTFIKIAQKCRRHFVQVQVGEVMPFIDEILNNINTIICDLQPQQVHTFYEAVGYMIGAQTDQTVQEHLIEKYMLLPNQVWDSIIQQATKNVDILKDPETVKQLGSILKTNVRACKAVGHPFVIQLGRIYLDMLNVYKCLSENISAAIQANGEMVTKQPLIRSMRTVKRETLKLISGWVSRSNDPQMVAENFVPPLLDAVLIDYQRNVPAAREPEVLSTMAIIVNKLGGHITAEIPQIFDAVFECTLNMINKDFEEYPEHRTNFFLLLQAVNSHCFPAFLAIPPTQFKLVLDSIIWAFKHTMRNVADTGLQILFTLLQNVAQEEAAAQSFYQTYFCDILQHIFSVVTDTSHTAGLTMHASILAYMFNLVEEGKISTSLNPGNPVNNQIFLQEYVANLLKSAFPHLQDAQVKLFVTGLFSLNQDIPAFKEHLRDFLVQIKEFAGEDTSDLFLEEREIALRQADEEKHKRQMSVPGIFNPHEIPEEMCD

LLFALKVLNM [NES peptide (173–182 aa of TIRR)]
Kd: 45 µM
